Assay [1] concerns the target T1, OG488-TFPIα-BR (fluorescently labeled with OG488 (Oregon Green 488 maleimide)).
T1 construct: The labelled form stood in the anisotropy titrations; also called TFPIα-BR fragment; BR fragment; source: expressed in SUMO-pro bacteria (Life-Sensors), purified, fluorescently labeled with OG488
Description: fluorescence polarisation; steady-state fluorescence anisotropy; FV species or APCi titrated (0–100 nM) into 25 nM OG488-TFPIα-BR and 50 μM PCPS vesicles in HBS/Ca2+/PEG, pH 7.4 (20 mM Hepes, 150 mM NaCl, 5 mM CaCl2, 0.1% PEG-8000), 25 °C; fit to a model for tight binding. As to conditions: both partners purified. A general note: Fluorescence polarisation rises when a labelled molecule tumbles more slowly, as on binding a larger partner.

Assay [2] concerns the target T1, OG488-TFPIα-BR. Description: cell-based or functional assay.

T1 sequence (P10646 268-293): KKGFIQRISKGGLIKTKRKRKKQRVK

B1: FV-short (natural protein)
chain: AQLRQFYVAAQGISWSYRPEPTNSSLNLSVTSFKKIVYREYEPYFKKEKPQSTISGLLGPTLYAEVGDIIKVHFKNKADKPLSIHPQGIRYSKLSEGASYLDHTFPAEKMDDAVAPGREYTYEWSISEDSGPTHDDPPCLTHIYYSHENLIEDFNSGLIGPLLICKKGTLTEGGTQKTFDKQIVLLFAVFDESKSWSQSSSLMYTVNGYVNGTMPDITVCAHDHISWHLLGMSSGPELFSIHFNGQVLEQNHHKVSAITLVSATSTTANMTVGPEGKWIISSLTPKHLQAGMQAYIDIKNCPKKTRNLKKITREQRRHMKRWEYFIAAEEVIWDYAPVIPANMDKKYRSQHLDNFSNQIGKHYKKVMYTQYEDESFTKHTVNPNMKEDGILGPIIRAQVRDTLKIVFKNMASRPYSIYPHGVTFSPYEDEVNSSFTSGRNNTMIRAVQPGETYTYKWNILEFDEPTENDAQCLTRPYYSDVDIMRDIASGLIGLLLICKSRSLDRRGIQRAADIEQQAVFAVFDENKSWYLEDNINKFCENPDEVKRDDPKFYESNIMSTINGYVPESITTLGFCFDDTVQWHFCSVGTQNEILTIHFTGHSFIYGKRHEDTLTLFPMRGESVTVTMDNVGTWMLTSMNSSPRSKKLRLKFRDVKCIPDDDEDSYEIFEPPESTVMATRKMHDRLEPEDEESDADYDYQNRLAAALGIRSFRNSSLNQEEEEFNLTALALENGTEFVSSNTDIIVGSNYSSPSNIDLGQMPSPSSPTLNDTFLSKEFNPLVIVGLSKDGTDYIEIIPKEEVQSSEDDYAEIDYVPYDDPYKTDVRTNINSSRDPDNIAAWYLRSNNGNRRNYYIAAEEISWDYSEFVQRETDIEDSDDIPEDTTYKKVVFRKYLDSTFTKRDPRGEYEEHLGILGPIIRAEVDDVIQVRFKNLASRPYSLHAHGLSYEKSSEGKTYEDDSPEWFKEDNAVQPNSSYTYVWHATERSGPESPGSACRAWAYYSAVNPEKDIHSGLIGPLLICQKGILHKDSNMPMDMREFVLLFMTFDEKKSWYYEKKSRSSWRLTSSEMKKSHEFHAINGMIYSLPGLKMYEQEWVRLHLLNIGGSQDIHVVHFHGQTLLENGNKQHQLGVWPLLPGSFKTLEMKASKPGWWLLNTEVGENQRAGMQTPFLIMDRDCRMPMGLSTGIISDSQIKASEFLGYWEPRLARLNNGGSYNAWSVEKLAAEFASKPWIQVDMQKEVIITGIQTQGAKHYLKSCYTTEFYVAYSSNQINWQIFKGNSTRNVMYFNGNSDASTIKENQFDPPIVARYIRISPTRAYNRPTLRLELQGCEVNGCSTPLGMENGKIENKQITASSFKKSWWGDYWEPFRARLNAQGRVNAWQAKANNNKQWLEIDLLKIKKITAIITQGCKSLSSEMYVKSYTIHYSEQGVEWKPYRLKSSMVDKIFEGNTNTKGHVKNFFNPPIISRFIRVIPKTWNQSIALRLELFGCDIY
In the case of B1, in the assay with OG488-TFPIα-BR [1], the affinity, expressed as Kd, was 1.56 nM and the “stoichiometry N” value stood at 1.18 mol/mol. Moreover, the “Reduced fold change of inactivation by APC, +TFPIα-BR (kobs no BR divided by kobs +BR; % peak thrombin in TGA; 20 nM FV species, 250 nM BR fragment, 1 nM APC)” value with OG488-TFPIα-BR [2] worked out at 14.2 fold.

Broadly, the Kd is the constant that tells how readily two partners part at equilibrium. Lower therefore signals a tighter complex. A word on the stoichiometry N: it is the number of molecules, sites or subunits per partner or assembly.

These data come from publication PMC9637641, “Regulation of factor V by the anticoagulant protease activated protein C: Influence of the B-domain and TFPIα” (The Journal of Biological Chemistry, 2022).
